The FLAb antibody collection (doi:10.7554/elife.23156)

B1: scFv; the commonest letter at each place (parent)
chain 1: EVKLDETGGGLVQPGRPMKLSCVASGFTFSDYWMNWVRQSPEKGLEWVAQIRNKPYNYETYYSDSVKGRFTISRDDSKSSVYLQMNNLRVEDMGIYYCTGSYYGMDYWGQGTSVTVS
chain 2: DVVMTQTPLSLPVSLGDQASISCRSSQSLVHSNGNTYLRWYLQKPGQSPKVLIYKVSNRFSGVPDRFSGSGSGTDFTLKISRVEAEDLGVYFCSQSTHVPWTFGGGTKLEIK

What was measured:
[1] = variants of: B1; assay: Kd (Tite-Seq); settings: with fluorescein; format: scFv 4-4-20, heavy + light
[2] = variants of: B1; assay: yeast surface expression (ratio to wild type); higher = more expressed; settings: format: scFv 4-4-20, heavy + light

| Variant | Kd [1] [µM] | yeast surface expression [2] |
| --- | --- | --- |
| chain 1 F29I V37D | ≥ 10 | 1.12 |
| chain 1 Y103P D106M | ≥ 10 | 0.742 |
| chain 1 Y107L G109V | ≥ 10 | 0.298 |
| chain 1 S101M G109H | ≥ 10 | 0.229 |
| chain 1 F29W M34W | ≥ 10 | 0.913 |
| chain 1 N35F V37S | ≥ 10 | 0.884 |
| chain 1 S101T M105S | ≥ 10 | 0.699 |
| chain 1 S30N N35E | ≥ 10 | 0.697 |
| chain 1 Y102K Y103A D106W | ≥ 10 | 0.439 |
| chain 1 Y103S D106H | ≥ 10 | 0.542 |
| chain 1 G100L W108Q | ≥ 10 | 0.477 |
| chain 1 M105T Y107D | ≥ 10 | 0.467 |
| chain 1 F29C S30T N35E | 9.5 | 0.668 |
| chain 1 D31F V37E | ≥ 10 | 0.257 |
| chain 1 Y102G D106Y | ≥ 10 | 0.496 |
| chain 1 S101V D106I Y107C | ≥ 10 | 0.165 |
| chain 1 F29P M34C | ≥ 10 | 0.755 |
| chain 1 D106W Y107I | ≥ 10 | 0.31 |
| chain 1 M105Q Y107E W108T | 0.0162 | 0.548 |
| chain 1 S101T Y103E G104K | ≥ 10 | 0.854 |
| chain 1 N35C V37L | ≥ 10 | 0.527 |
| chain 1 M105T G109C | ≥ 10 | 0.27 |
| chain 1 D31L N35F | ≥ 10 | 0.446 |
| chain 1 S101W G104H | ≥ 10 | 0.376 |

| Variant | Kd [1] [µM] | yeast surface expression [2] |
| --- | --- | --- |
| chain 1 Y103F W108I | ≤ 0.000316 | 0.885 |
| chain 1 S101F Y102A | ≥ 10 | 0.623 |
| chain 1 Y32S M34K V37D | ≥ 10 | 0.882 |
| chain 1 W33T M34W | ≥ 10 | 0.967 |
| chain 1 Y103H Y107Q | ≥ 10 | 0.941 |
| chain 1 G104N G109Y | ≥ 10 | 0.305 |
| chain 1 S30Q D31H | 0.00158 | 0.881 |
| chain 1 Y32S M34S V37M | ≥ 10 | 0.65 |
| chain 1 F29H V37R | 0.00707 | – |
| chain 1 T28C D31F M34A | ≥ 10 | 0.672 |
| chain 1 D31S W36I | ≥ 10 | 0.724 |
| chain 1 D31S W36S | ≥ 10 | 2.03 |
| chain 1 Y107E W108K | ≥ 10 | 0.513 |
| chain 1 Y103E W108I | 0.004 | 1.12 |
| chain 1 S30D W36R | ≥ 10 | 2.14 |
| chain 1 W33S W36L | ≥ 10 | 0.535 |
| chain 1 M34A | 0.00826 | 0.783 |
| chain 1 M34T | 0.00293 | 0.777 |
| chain 1 M34S | 0.151 | 0.652 |
| chain 1 Y32E W33T | ≥ 10 | 0.889 |
| unchanged | 0.00135 | 1 |
| chain 1 S30G W33V | ≥ 10 | 1 |
| chain 1 F29T Y32P | ≥ 10 | 0.901 |
| chain 1 S101G M105A | ≥ 10 | 0.988 |

| Variant | Kd [1] [µM] | yeast surface expression [2] |
| --- | --- | --- |
| chain 1 F29Y | 0.000783 | 0.978 |
| chain 1 G104R D106P Y107A | ≥ 10 | 0.359 |
| chain 1 G100M Y107G | ≥ 10 | 0.575 |
| chain 1 Y107I W108S | ≥ 10 | 0.786 |
| chain 1 Y32S N35H | ≥ 10 | 0.89 |
| chain 1 M34A W36T | ≥ 10 | 0.544 |
| chain 1 S30D N35R | ≥ 10 | 0.195 |
| chain 1 G100C D106Q | ≥ 10 | 0.754 |
| chain 1 F29D W36H | ≥ 10 | 0.505 |
| chain 1 D106E W108I | 0.228 | 0.866 |
| chain 1 S30P N35V | ≥ 10 | 0.636 |
| chain 1 Y32F M34Q | ≥ 10 | 0.502 |
| chain 1 S30M D31F | 5.66 | 0.611 |
| chain 1 D106N Y107F | 0.00361 | 0.715 |
| chain 1 T28A F29V | 0.00638 | 1.02 |
| chain 1 T28E | 0.0017 | 1.04 |
| chain 1 S30M N35M | ≥ 10 | 0.654 |
| chain 1 T28S D31C | 0.0767 | 0.771 |
| chain 1 D106N W108I | 0.00871 | 0.556 |
| chain 1 S30T W33F | 0.0534 | 0.909 |
| chain 1 S30Q W33N | ≥ 10 | 0.979 |
| chain 1 Y103M M105H D106Y | ≥ 10 | 0.63 |
| chain 1 S101D G104D Y107K | ≥ 10 | 0.674 |
| chain 1 S101I Y103P M105E | ≥ 10 | 0.462 |

| Variant | Kd [1] [µM] | yeast surface expression [2] |
| --- | --- | --- |
| chain 1 G100T M105G | ≥ 10 | 0.878 |
| chain 1 G100T M105T | ≥ 10 | 0.909 |
| chain 1 Y32I M34A | ≥ 10 | 0.821 |
| chain 1 M34K N35A | 0.0692 | 0.175 |
| chain 1 F29I D31E Y32T | ≥ 10 | 0.84 |
| chain 1 M105D D106I | ≥ 10 | 0.844 |
| chain 1 M105E G109W | ≥ 10 | 0.278 |
| chain 1 Y32G W36H | ≥ 10 | 0.209 |
| chain 1 S30G D31H S101A Y102S D106E W108L | 0.000351 | 0.844 |
| chain 1 G100Y Y107Q | ≥ 10 | 0.595 |
| chain 1 S101R Y103K | ≥ 10 | 0.984 |
| chain 1 Y32T M34E | ≥ 10 | 0.451 |
| chain 1 S101L G104S | ≥ 10 | 0.326 |
| chain 1 Y32P W33C | 2.47 | 0.832 |
| chain 1 S101N Y102M | ≥ 10 | 0.944 |
| chain 1 Y102R M105G | ≥ 10 | 0.754 |
| chain 1 W33S | ≥ 10 | 0.845 |
| chain 1 G100H S101H | ≥ 10 | 0.273 |
| chain 1 F29D N35F W36G | ≥ 10 | 0.644 |
| chain 1 F29D Y32C | ≥ 10 | 0.924 |
| chain 1 G100P M105A | ≥ 10 | 0.56 |
| chain 1 M34P V37A | ≥ 10 | 0.897 |
| chain 1 D106F Y107G | ≥ 10 | 0.238 |
| chain 1 D31Y W33C | ≥ 10 | 0.597 |

| Variant | Kd [1] [µM] | yeast surface expression [2] |
| --- | --- | --- |
| chain 1 Y32P W36K | ≥ 10 | 0.563 |
| chain 1 Y107C | ≥ 10 | 0.592 |
| chain 1 T28I W33K | ≥ 10 | 0.617 |
| chain 1 W33C V37W | ≥ 10 | 0.503 |
| chain 1 G100W S101P D106M | ≥ 10 | 0.186 |
| chain 1 S101C G109D | ≥ 10 | 0.328 |
| chain 1 G104M W108V G109T | ≥ 10 | 0.212 |
| chain 1 M34H V37P | ≥ 10 | 0.3 |
| chain 1 M34H V37W | ≥ 10 | 0.602 |
| chain 1 Y103R G109I | ≥ 10 | 0.291 |
| chain 1 Y102I D106Q | ≥ 10 | 0.599 |
| chain 1 D31Y M34K | 0.676 | 0.834 |
| chain 1 S30L Y32H | 2.23 | 0.8 |
| chain 1 Y102P M105K | ≥ 10 | 0.473 |
| chain 1 F29D W33Y | ≥ 10 | 0.766 |
| chain 1 F29D W33L | ≥ 10 | 0.795 |
| chain 1 G100L | ≥ 10 | 0.747 |
| chain 1 S30H W33C | ≥ 10 | 0.61 |
| chain 1 Y32S V37F | 8.13 | 0.891 |
| chain 1 D31Y V37Q | 0.0592 | 1.38 |
